Results: patent US20230407373A1 (priority 2020, published 2023)
“Also recorded” adds a separate entry of the source. Read-outs that look alike come from different tables or passages of the source.

Key:
[1] = test system: SARS-CoV-2; type: cell-based; conditions: for change in viral RNA levels (gRNA, N sgRNA) after siRNA depletion: Calu-3 cells, 50 nM siRNA, RT-qPCR, relative to siNC
[2] = test system: gRNA of HCoV-OC43; type: binding; conditions: for target (spectral count) / background (spectral count): type g_36_m, 36 hpi, Probe I; for target (spectral count): HCoV-OC43-infected HCT-8 cells; for background (spectral count): uninfected-probe control; for target (spectral count, OC43 Probe I RNP capture) / background (spectral count, no-probe control): type n_48_v: 48 hours post-infection; for target (spectral count, OC43 Probe I RNP capture): infected cells, unweighted spectral count; for background (spectral count, no-probe control): no-probe control on infected cells
[3] = test system: SARS-CoV-2 gRNA; type: binding; conditions: for target (unweighted spectral count of the protein in the RNP capture): LC-MS/MS, Probe I sample (first 199 lines of Table 2)
[4] = test system: HCoV-OC43 gRNA and sgRNA; type: binding; conditions: for target (unweighted spectral count): OC43 Probe II, infected cells; for target (unweighted spectral count) / target (unweighted spectral count, OC43 Probe II capture): tested against no-probe control; for target (unweighted spectral count, OC43 Probe II) / background (unweighted spectral count, no-probe control): type n_48_v, 48 hpi; for target (unweighted spectral count, OC43 Probe II): OC43 Probe II capture on infected cells; for background (unweighted spectral count, no-probe control): no-probe control on infected cells; for target (spectral count) / background (spectral count): type s_36_m, Probe II; for target (spectral count): HCoV-OC43-infected HCT-8 cells; for background (spectral count): uninfected-probe control; for target (unweighted spectral count, OC43 Probe II capture): FDR<10%
[5] = test system: SARS-CoV-2 gRNA and sgRNAs; type: binding; conditions: for target (unweighted spectral count in RNP capture): Probe II capture, LC-MS/MS LFQ; for background (unweighted spectral count in control): no-probe control pull-down, used as background for Probe II

B1: HDLBP: host protein, UniProt Q00341 (protein, UniProt Q00341 2-1268, looked up)
Vigilin: SSVAVLTQESFAEHRSGLVPQQIKVATLNSEEESDPPTYKDAFPPLPEKAACLESAQEPAGAWGNKIRPIKASVITQVFHVPLEERKYKDMNQFGEGEQAKICLEIMQRTGAHLELSLAKDQGLSIMVSGKLDAVMKARKDIVARLQTQASATVAIPKEHHRFVIGKNGEKLQDLELKTATKIQIPRPDDPSNQIKITGTKEGIEKARHEVLLISAEQDKRAVERLEVEKAFHPFIAGPYNRLVGEIMQETGTRINIPPPSVNRTEIVFTGEKEQLAQAVARIKKIYEEKKKKTTTIAVEVKKSQHKYVIGPKGNSLQEILERTGVSVEIPPSDSISETVILRGEPEKLGQALTEVYAKANSFTVSSVAAPSWLHRFIIGKKGQNLAKITQQMPKVHIEFTEGEDKITLEGPTEDVNVAQEQIEGMVKDLINRMDYVEINIDHKFHRHLIGKSGANINRIKDQYKVSVRIPPDSEKSNLIRIEGDPQGVQQAKRELLELASRMENERTKDLIIEQRFHRTIIGQKGERIREIRDKFPEVIINFPDPAQKSDIVQLRGPKNEVEKCTKYMQKMVADLVENSYSISVPIFKQFHKNIIGKGGANIKKIREESNTKIDLPAENSNSETIIITGKRANCEAARSRILSIQKDLANIAEVEVSIPAKLHNSLIGTKGRLIRSIMEECGGVHIHFPVEGSGSDTVVIRGPSSDVEKAKKQLLHLAEEKQTKSFTVDIRAKPEYHKFLIGKGGGKIRKVRDSTGARVIFPAAEDKDQDLITIIGKEDAVREAQKELEALIQNLDNVVEDSMLVDPKHHRHFVIRRGQVLREIAEEYGGVMVSFPRSGTQSDKVTLKGAKDCVEAAKKRIQEIIEDLEAQVTLECAIPQKFHRSVMGPKGSRIQQITRDFSVQIKFPDREENAVHSTEPVVQENGDEAGEGREAKDCDPGSPRRCDIIIISGRKEKCEAAKEALEALVPVTIEVEVPFDLHRYVIGQKGSGIRKMMDEFEVNIHVPAPELQSDIIAITGLAANLDRAKAGLLERVKELQAEQEDRALRSFKLSVTVDPKYHPKIIGRKGAVITQIRLEHDVNIQFPDKDDGNQPQDQITITGYEKNTEAARDAILRIVGELEQMVSEDVPLDHRVHARIIGARGKAIRKIMDEFKVDIRFPQSGAPDPNCVTVTGLPENVEEAIDHILNLEEEYLADVVDSEALQVYMKPPAHEEAKAPSRGFVVRDAPWTASSSEKAPDMSSSEEFPSFGAQVAPKTLPWGPKR
change in viral RNA levels (gRNA, N sgRNA) after siRNA depletion [1]: increased the viral RNA levels | target (spectral count) [2]: 26 | background (spectral count) [2]: 3 | target (spectral count, OC43 Probe I RNP capture) [2]: 16 | background (spectral count, no-probe control) [2]: 2 | target (unweighted spectral count of the protein in the RNP capture) [3]: 23 | target (unweighted spectral count) ([4]; 12 hpi (type n_12_v)): 11 | target (unweighted spectral count) ([4]; 24 hpi (type n_24_v)): 24 | target (unweighted spectral count, OC43 Probe II) [4]: 50 | background (unweighted spectral count, no-probe control) [4]: 2 | target (spectral count) ([4]; 36 hpi): 36 | background (spectral count) ([4]; 36 hpi): 1

B2: FUBP3: host protein, UniProt Q96I24 (protein, UniProt Q96I24 2-572, looked up)
Far upstream element-binding …: AELVQGQSAPVGMKAEGFVDALHRVRQIAAKIDSIPHLNNSTPLVDPSVYGYGVQKRPLDDGVGNQLGALVHQRTVITEEFKVPDKMVGFIIGRGGEQISRIQAESGCKIQIASESSGIPERPCVLTGTPESIEQAKRLLGQIVDRCRNGPGFHNDIDSNSTIQEILIPASKVGLVIGRGGETIKQLQERTGVKMVMIQDGPLPTGADKPLRITGDAFKVQQAREMVLEIIREKDQADFRGVRGDFNSRMGGGSIEVSVPRFAVGIVIGRNGEMIKKIQNDAGVRIQFKPDDGISPERAAQVMGPPDRCQHAAHIISELILTAQERDGFGGLAAARGRGRGRGDWSVGAPGGVQEITYTVPADKCGLVIGKGGENIKSINQQSGAHVELQRNPPPNSDPNLRRFTIRGVPQQIEVARQLIDEKVGGTNLGAPGAFGQSPFSQPPAPPHQNTFPPRSSGCFPNMAAKVNGNPHSTPVSGPPAFLTQGWGSTYQAWQQPTQQVPSQQSQPQSSQPNYSKAWEDYYKKQSHAASAAPQASSPPDYTMAWAEYYRQQVAFYGQTLGQAQAHSQEQ
change in viral RNA levels (gRNA, N sgRNA) after siRNA depletion [1]: increased the viral RNA levels | enrichment / detection in HCoV-OC43 Probe I RNP capture ([2]; infected HCT-8 cells): enriched | target (spectral count) [2]: 49 | background (spectral count) [2]: 9 | target (spectral count, OC43 Probe I RNP capture) [2]: 47 | background (spectral count, no-probe control) [2]: 3 | enrichment in SARS-CoV-2 Probe II RNP capture [5]: enriched; also recorded: found in the SARS-CoV-2 experiments | target (unweighted spectral count in RNP capture) ([5]; […]): 173 | background (unweighted spectral count in control) [5]: 1 | enrichment in SARS-CoV-2 Probe I RNP capture [3]: enriched; also recorded: found in the SARS-CoV-2 experiments | target (unweighted spectral count of the protein in the RNP capture) [3]: 94 | target (unweighted spectral count, OC43 Probe II capture) ([4]; 36 hpi, type n_36_v): 42 | target (unweighted spectral count) ([4]; 12 hpi (type n_12_v)): 11 | target (unweighted spectral count) ([4]; 24 hpi (type n_24_v)): 27 | enrichment / detection in HCoV-OC43 Probe II RNP capture ([4]; infected HCT-8 cells): enriched | target (unweighted spectral count, OC43 Probe II) [4]: 71 | background (unweighted spectral count, no-probe control) [4]: 3 | target (spectral count) ([4]; 36 hpi): 42 | background (spectral count) ([4]; 36 hpi): 6

B3: CSDE1: host protein, UniProt O75534 (protein, UniProt O75534 1-798, looked up)
Cold shock domain-containing …: MSFDPNLLHNNGHNGYPNGTSAALRETGVIEKLLTSYGFIQCSERQARLFFHCSQYNGNLQDLKVGDDVEFEVSSDRRTGKPIAVKLVKIKQEILPEERMNGQVVCAVPHNLESKSPAAPGQSPTGSVCYERNGEVFYLTYTPEDVEGNVQLETGDKINFVIDNNKHTGAVSARNIMLLKKKQARCQGVVCAMKEAFGFIERGDVVKEIFFHYSEFKGDLETLQPGDDVEFTIKDRNGKEVATDVRLLPQGTVIFEDISIEHFEGTVTKVIPKVPSKNQNDPLPGRIKVDFVIPKELPFGDKDTKSKVTLLEGDHVRFNISTDRRDKLERATNIEVLSNTFQFTNEAREMGVIAAMRDGFGFIKCVDRDVRMFFHFSEILDGNQLHIADEVEFTVVPDMLSAQRNHAIRIKKLPKGTVSFHSHSDHRFLGTVEKEATFSNPKTTSPNKGKEKEAEDGIIAYDDCGVKLTIAFQAKDVEGSTSPQIGDKVEFSISDKQRPGQQVATCVRLLGRNSNSKRLLGYVATLKDNFGFIETANHDKEIFFHYSEFSGDVDSLELGDMVEYSLSKGKGNKVSAEKVNKTHSVNGITEEADPTIYSGKVIRPLRSVDPTQTEYQGMIEIVEEGDMKGEVYPFGIVGMANKGDCLQKGESVKFQLCVLGQNAQTMAYNITPLRRATVECVKDQFGFINYEVGDSKKLFFHVKEVQDGIELQAGDEVEFSVILNQRTGKCSACNVWRVCEGPKAVAAPRPDRLVNRLKNITLDDASAPRLMVLRQPRGPDNSMGFGAERKIRQAGVID
antiviral or proviral role of the host protein indicated by knockdown [1]: proviral effects | target (spectral count, OC43 Probe I RNP capture) [2]: 20 | background (spectral count, no-probe control) [2]: 1 | enrichment in SARS-CoV-2 Probe II RNP capture [5]: enriched | target (unweighted spectral count in RNP capture) ([5]; […]): 92 | background (unweighted spectral count in control) [5]: 1 | enrichment in SARS-CoV-2 Probe I RNP capture [3]: enriched | target (unweighted spectral count of the protein in the RNP capture) [3]: 37 | target (unweighted spectral count) ([4]; 24 hpi (type n_24_v)): 18 | target (unweighted spectral count, OC43 Probe II) [4]: 21 | background (unweighted spectral count, no-probe control) [4]: 1 | target (spectral count) ([4]; 36 hpi): 24 | background (spectral count) ([4]; 36 hpi): 3

B4: SF1: host protein, UniProt Q15637 (protein, UniProt Q15637 2-639, looked up)
Splicing factor 1: ATGANATPLDFPSKKRKRSRWNQDTMEQKTVIPGMPTVIPPGLTREQERAYIVQLQIEDLTRKLRTGDLGIPPNPEDRSPSPEPIYNSEGKRLNTREFRTRKKLEEERHNLITEMVALNPDFKPPADYKPPATRVSDKVMIPQDEYPEINFVGLLIGPRGNTLKNIEKECNAKIMIRGKGSVKEGKVGRKDGQMLPGEDEPLHALVTANTMENVKKAVEQIRNILKQGIETPEDQNDLRKMQLRELARLNGTLREDDNRILRPWQSSETRSITNTTVCTKCGGAGHIASDCKFQRPGDPQSAQDKARMDKEYLSLMAELGEAPVPASVGSTSGPATTPLASAPRPAAPANNPPPPSLMSTTQSRPPWMNSGPSESRPYHGMHGGGPGGPGGGPHSFPHPLPSLTGGHGGHPMQHNPNGPPPPWMQPPPPPMNQGPHPPGHHGPPPMDQYLGSTPVGSGVYRLHQGKGMMPPPPMGMMPPPPPPPSGQPPPPPSGPLPPWQQQQQQPPPPPPPSSSMASSTPLPWQQNTTTTTTSAGTGSIPPWQQQQAAAAASPGAPQMQGNPTMVPLPPGVQPPLPPGAPPPPPPPPPGSAGMMYAPPPPPPPPMDPSNFVTMMGMGVAGMPPFGMPPAPPPPPPQN
target (spectral count) [2]: 12 | background (spectral count) [2]: 2 | target (spectral count, OC43 Probe I RNP capture) [2]: 12 | background (spectral count, no-probe control) [2]: 1 | target (unweighted spectral count of the protein in the RNP capture experiment) ([5]; […], LC-MS/MS label-free quantification, probe pool not given): 6 | back-ground (unweighted spectral count of the protein in the control experiment) ([5]; protein background of the control (e.g. no-probe) experiment, […]): 1 | target (unweighted spectral count of the protein in the RNP capture) [3]: 17 | target (unweighted spectral count, OC43 Probe II capture) ([4]; 24 hpi, type n_24_v): 4 | target (unweighted spectral count, OC43 Probe II capture) ([4]; 36 hpi, type n_36_v): 8 | target (spectral count) ([4]; 36 hpi): 8 | background (spectral count) ([4]; 36 hpi): 1
